Measurements reported in patent US20250051821.
Numbering of substitutions follows the chain as printed.

T1: IFF05588
T1 chain: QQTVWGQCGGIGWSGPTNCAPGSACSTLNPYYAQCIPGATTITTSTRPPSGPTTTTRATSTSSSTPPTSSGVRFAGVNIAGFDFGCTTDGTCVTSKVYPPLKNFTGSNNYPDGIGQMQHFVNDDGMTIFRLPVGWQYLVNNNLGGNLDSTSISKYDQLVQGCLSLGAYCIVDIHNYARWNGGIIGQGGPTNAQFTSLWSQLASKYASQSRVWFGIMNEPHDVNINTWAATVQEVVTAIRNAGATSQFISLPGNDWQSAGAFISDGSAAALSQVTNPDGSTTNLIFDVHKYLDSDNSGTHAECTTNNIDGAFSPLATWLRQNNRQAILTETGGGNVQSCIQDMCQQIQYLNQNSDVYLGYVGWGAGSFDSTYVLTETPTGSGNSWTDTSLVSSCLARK

T2: IFF07399
T2 chain: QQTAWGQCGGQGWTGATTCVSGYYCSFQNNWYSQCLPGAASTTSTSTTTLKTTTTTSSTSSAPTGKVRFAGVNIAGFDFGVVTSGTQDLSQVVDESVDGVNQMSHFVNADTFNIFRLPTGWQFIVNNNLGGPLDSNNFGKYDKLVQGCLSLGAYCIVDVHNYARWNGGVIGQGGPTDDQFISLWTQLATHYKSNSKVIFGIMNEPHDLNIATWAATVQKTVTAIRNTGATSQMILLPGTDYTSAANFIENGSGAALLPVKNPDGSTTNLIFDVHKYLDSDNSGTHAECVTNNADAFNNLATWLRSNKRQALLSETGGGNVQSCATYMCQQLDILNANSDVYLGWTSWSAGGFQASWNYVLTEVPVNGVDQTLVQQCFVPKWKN

B1: IFF21361 (protein)
chain: DLLRPEIDTVFADGLGPLDQPLVDNLPLTSYTLNQWAPGWIPADCKAMIEGQNMSATEMTVWSVAYADCVDPWVMCQHPSAELNLTAMIDLFGRLPVKMRSLVRHLAAIPGRPWAYNSGTTGRISVFAHEVGHSMDYHGYFNDTRGQFSLSSLWLDNFAKDSGVADYYANTDQGENHSQEVVVALFDANVPGGLGSVTGNWSAILHQYATIQGFVGDGGDTLTPGGACSHRHNNSAAVPMTTEDAAQGPPPDVELTGPVHVYAFKPMEPVANATVVKEDGVAAPMVVKVF
B2: IFF21370 (protein)
chain: DDTPPFKPVISPAFDFYGTLEDGLRANLAPTQSTWDQWGEGWIPDDCKWYAEYYGYAANEFEVFNVKYTDCDEAWIMCRHKQATVSQTGMIDLFGRLPLGMREYVKHVVMAPETKANTVASSYRGTIAFDQDYFSIYNLVHETGHCMDGTAALDVFPDGISSSSIWQDNYNQDSAVVRDYARSSWVENFAETGTVAVYDKVVPGGIGPIQPNWEQIYHQYATYNGYLSDIITPGAKDKCTQRRENSETVAMGASSRIMRSSPPDTSFKSDVKVMPAGANDEFFFEHSRDH
B3: IFF21376 (protein)
chain: QTLDKPALTPDLDYLEQGAIDNLAPTQSTNDQWGSGWIPSDCKDIANNEGKNPDDFEIYNVHYDDCDDAWVFCRHKDTPTDLITTIDIFGRLPVAMRSWVRHVLTIPGDNYAYNSNGNIAFFGTTSGIMDVAIHETGHSLDLLGAYGDQLSSSQDWLDNYNQDSNVPDNYAQTNQIENVEQNTVVSVYDKVVPGGFGSAQPNWNNIFHQYATLQGKAGDQIIPGGSCDRHLVNSETVSTSDSAAAAMVDAVDKPVTSFKGNYTKILKTHAKFNTKESCYFGN
B4: IFF21344 (protein)
chain: KLDKPIIQPNFPGGGLASLGQGLLNNLSPTQSTSDNWGAGWIPADCKSLVQGAGLSPFDVTPFNIHYTDCSQTWTFCRHKDSPLSQTDIIDLFGRVPVRMRDFIRHYVFIPGATSAGSSGDNTLMVGNVDITVFLHEIGHSLDSHAFDPSYGVPFSTSNVWISNYNLDSAVTDSYAQTSQQENFAQETVVSVYDKVVPGGIGTIQPNWQAIFHQYATLQGYIGNTIIPGGTCVNRLTDSQPVTMGNSAKFRRGLGPKPTVSLSPDVKEIKPIPMSDSITMTTFDEFGKANGTYVIHL
B5: IFF21345 (protein)
chain: B4 chain with V153A, T157N, V160I, N224D
B6: IFF21372 (protein)
chain: QNLGKPVLFTDGLSPHVDASFWAHLNPTQSTWDQWGWGWIPQSCFDAANSNNVSPYDFEVFNVHYTDCGTAWVFCRHHSASLSQIDMIDLFGRLPVHERQWIRHVVAVPGGGSAYELNADVVFQGPVGTPSVFQHEVGHAVDFYKNGFQSSGTSQFLNAIQQDSCVPDDYANSNNVEDYTQVGVLSLYEIVNPGGLDPIGANWRCLVNQKNVLDGFQRDNMIPGGVCDRRWADSTIVKMGPAVPRVKRGPVGPIPQPAGLPVPGPSKAGPDVYKNLVFNATEKRNAETRQAAWQKAAKGAEA
B7: IFF21347 (protein)
chain: KLDKPVIQPNFPGGGLASLGQGLLDNLKPTQSTSDVWGAGWIPADCKSLVQGAGLSPNDITPFNIHYTDCSQTWTFCRHKDSPLSQTDIIDLFGRVPVRMRDYIRHYVFIPGNKSAGSSGDNTLMVGDVDITVFLHEIGHSLDSHAFDPSYGVPFSTGNVWISNYNQDSAVTDDYAQSSQQENFAQETVVSVYDKNVPGGIGNIQPNWQAIFHQYATLEGYIGDTIIPGGTCVNRLTDSQPVTMSNSAKFRRNLGPKPTVSLSPDVKEIKAIPMADSIKMTSFDEHGKPNGTYVIQL
B8: IFF21346 (protein)
chain: B7 chain with K1N, D174S, N253T, A271P, Q296N
B9: IFF21366 (protein)
chain: QNLNKPVLFSDGLSPHVDSVFFQHLTPTQSTWDKWGWGWIPQACLSVVQGTQFSPYDIEVYNVHYTDCASAVVMCRHNQAQMSIINMIDAFGRIPIHDRQWTQHILALPAGGCSAGTGGAVTTFYGPCYIPSVFVHELTHTLDAFVNDKTGSTGAVHVYSTTSSYLNSVNQDSCVPDGYANTSPQEDYAQTSVLALYEKVNPGGLDPIGPWRCLVNAKNNLDSIIGQELTPGGSCTHRWADSAIVCMGPAAGCTSSKRGFEGRRGLKPVGPKPNPANKKGDPLVLDLLPDLASVVNAKITDFSHLSSNHTAGIEATIRINAWNKAAGKETVPVPKA
B10: IFF21355 (protein)
chain: GNPDKPEVSPRIPYDRLESGLRNNLHPTQSTWDYWGAGWIPQGCKDLAKTYHLNPADFTIFNVHYTDCSASWTFCRHKDAGASEIDMIDIFGRLPVRMRSYIRHLMATPGLNDGAAAWTWSSGDCVVESAPNLATLVHEVSHSLDWHALPQYQQPFSSSSIWQDNYNQDSATPTGYGRTNWMENFAETGTVGVYDKVVPGGIGNIEPNWNAIFHQYATYQGYLGDKIIPGGSCANRFEDTPPVAMSNSVKFKITSPKPEIGIDFVGKNITQIIPSKEVEGLYIKG
B11: IFF21356 (protein)
chain: GNPDKPEVNPHIPYDRLESDLRNNLHPTQSTWDYWGAGWIPQGCKDLANTYHLNPADFTIFNVHYTDCSASWTFCRHKNAGASEIDMIDIFGRLPVHMRSYIRHLVATPGLNDGAAAWTWSSGDCVVESAPNLATLVHEVSHSLDWHALPQYQQPFSSSSIWQDNYNQDSATPTGYGRTNWMENFAETGMVGVYDKVVPGGIGNIEPNWNAIFHQYATYQGYLGDKIIPGGSCANRFDDTPPVAMSNSAKVKVNSPKPGTRIDFAGTNITQIIPSKEVEGLYIKG

Target: T1, IFF05588

B1 and B2 are the same in Relative late peak area (centered, scaled, averaged over 5, 10 and 15 min): -1.05 for the first, -1.05 for the second.

Compared with B3, B4 is higher in Relative late peak area (centered, scaled, averaged over 5, 10 and 15 min): -0.99 for the first, 1.36 for the second.

Compared with B5, B6 is lower in Relative late peak area (centered, scaled, averaged over 5, 10 and 15 min): 1.82 for the first, 1.62 for the second.

Going from B7 to B8, the Relative late peak area (centered, scaled, averaged over 5, 10 and 15 min) falls from 1.74 to 0.52.

Compared with B9, B10 is lower in Relative late peak area (centered, scaled, averaged over 5, 10 and 15 min): 0.34 for the first, -1.02 for the second.

B11 gave a Relative late peak area (centered, scaled, averaged over 5, 10 and 15 min) of -1.04.

Going from B1 to B3, the Relative late peak area (centered, scaled, averaged over doses, 24 h; sample diluted 1-fold) rises from -1.64 to -1.61.

B10 and B11 are the same in Relative late peak area (centered, scaled, averaged over doses, 24 h; sample diluted 1-fold): -1.52 for the first, -1.52 for the second.

B1 was tested, and the “modification of IFF05588 (reverse phase chromatography, 5 to 15 min)” value was “All samples containing proteins related to IFF05497 except seven (IFF21355, IFF21358, IFF21356, IFF21361, IFF21370, IFF21357 and IFF21353) are able to modify IFF05588 under these reaction conditions”.
In the case of B2, the “modification of IFF05588 (reverse phase chromatography, 5 to 15 min)” value is reported as “All samples containing proteins related to IFF05497 except seven (IFF21355, IFF21358, IFF21356, IFF21361, IFF21370, IFF21357 and IFF21353) are able to modify IFF05588 under these reaction conditions”.
With B10 the “modification of IFF05588 (reverse phase chromatography, 5 to 15 min)” value was “All samples containing proteins related to IFF05497 except seven (IFF21355, IFF21358, IFF21356, IFF21361, IFF21370, IFF21357 and IFF21353) are able to modify IFF05588 under these reaction conditions”.
B11 was tested, and the “modification of IFF05588 (reverse phase chromatography, 5 to 15 min)” value was “All samples containing proteins related to IFF05497 except seven (IFF21355, IFF21358, IFF21356, IFF21361, IFF21370, IFF21357 and IFF21353) are able to modify IFF05588 under these reaction conditions”.

B1 was tested, and the “modification of IFF05588 (reverse phase chromatography, 24 h, doses)” value was “All samples containing proteins related to IFF05497 except two (IFF21376 and IFF21361) are able to modify IFF05588 under these reaction conditions. Close comparison of the chromatograms for these two samples show differences between buffer and sample chromatograms indicative of activity in the sampl”.

Compared with B4, B5 is higher in Relative late peak area (centered, scaled, averaged over doses, 24 h; sample diluted 10-fold): 0.79 for the first, 1.24 for the second.

Compared with B6, B7 is lower in Relative late peak area (centered, scaled, averaged over doses, 24 h; sample diluted 10-fold): 1.18 for the first, 1.14 for the second.

Compared with B6, B7 is lower in Relative late peak area (reverse phase chromatography, 24 h): 0.6 for the first, 0.59 for the second.

Compared with B8, B9 is lower in Relative late peak area (centered, scaled, averaged over doses, 24 h; sample diluted 2-fold): 1.07 for the first, 1.02 for the second.

Target: T2, IFF07399

In the case of B4, the “Gel mobility change (SDS-PAGE)” value is reported as “yes”.
In the case of B9, the “Gel mobility change (SDS-PAGE)” value is reported as “yes”.
